Data from US20100322948A1, “Bone morphogenetic protein (BMP)-binding domains of proteins of the repulsive guidance molecule (RGM) protein family and functional fragments thereof, and use of same” (ABBOTT GMBH & CO. KG, priority 2007, published 2010).
Ends that are not written are not given here.

B1: 47-90-Fc (#785) (Fc fusion)
chain: PCKILKCNSEFWSATSGSHAPASDDTPEFCAALRSYALCTRRTA
notes: Expressed in HEK293F cells; IgK leader left out; also called fragment 47-90; not shown: Factor Xa site from the vector; human IgG Fc (hIgG lambda hc 257-Stop)
B2: 316-386-Fc (#790) (Fc fusion)
chain: LRGCPLNQQIDFQAFHTNAEGTGARRLAAASPAPTAPETFPYETAVAKCKEKLPVEDLYYQACVFDLLTTG
notes: also called fragment #790; not shown: Factor Xa site from the vector; human IgG Fc (hIgG lambda hc 257-Stop)
B3: fragment #790: Fc fusion protein of human RGM A amino acids 316-386 (protein)
chain: B2 chain
modifications: left off: small tags and cut ends; a dimerising Fc or GST

Key:
BMP-4 = target: T1, BMP-4 (Homo sapiens, UniProt P12644); experiment: In vitro interaction test, variant A: immobilized BMP-4, detection of binding of RGMA-Fc fusion proteins; conditions: Working Example 3, FIG. 5; detection anti-human-Fc or anti-Myc
T1 construct: purchased R&D Systems 314-BM
T1 sequence (P12644 293-408): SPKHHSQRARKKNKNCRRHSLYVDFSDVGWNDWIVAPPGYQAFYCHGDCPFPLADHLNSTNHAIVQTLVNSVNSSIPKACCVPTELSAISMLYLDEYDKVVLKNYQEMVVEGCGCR
Procedure: Test Method 4: In Vitro Interaction Test for Determining the Interaction between RGMA and BMP-2 and -4
The interaction tests were carried out as described below:
Variant A: Immobilization of the BMP-2/ or -4 Protein and Detection of the Binding of Various RGMA-Fc Fusion Proteins
1. Plate: • Immunoplate Cert. MaxiSorp F96 (Nunc, 439454)
Recombinant human BMP-2, Catalog No.: 355-BM, Company: R&D Systems; Recombinant human RGM A, R&D Systems; Prod. #2495-RM, or
Recombinant human BMP-4, Catalog No.: 314-BM, Company: R&D Systems; • Concentration: 10 μg/mL • Volume used: 2.5 μg/mL in Na2CO3; addition: 50 μL per well • 1 hour at 37° C. in damp chamber
3. Washing step: • Wash 3× with PBS/[…] Tween 20
4. Blocking: • 3% BSA in PBS/0.02% Tween, 1 hour at 37° C. in damp chamber; addition: 200 μL per well
RGMA-Fc fragments, • 1 μg/mL initial concentration, then dilution down to 1:2 using PBS/0.02% Tween20 • […] • 1 hour at 37° C. in damp chamber
6. Washing step: • Wash 3× with PBS/0.02% Tween 20
Biotin anti-human Fc (R&D-Systems), Catalog No.: 709065; 1 mg/mL; • 1:200 in 0.6% BAS/PBS-T (0.02% Tween) • Addition: 50 μL per well • 1 hour at 37° C. in damp chamber
8. Secondary antibody: Strep. POD (Roche); Catalog No.: 11089153001 • 500 U; 1:5000 in 0.6% BAS/PBS-T (0.02% Tween) • Addition: 50 μL per well • 1 hour at 37° C. in damp chamber
9. Washing step: • Wash 3× with PBS/0.02% Tween 20
ImmunoPure TMB substrate kit; Pierce, #34021 • Development period: approximately 1-30 minutes • 1:1 mixture of […]; addition: 50 μL per well
11. Stop: • 2.5 M H2SO4; addition: 50 μL per well
The test was conducted according to test method 4, variant A above, with immobilization of BMP-4 (1 mg/mL). The binding of the fusion proteins was detected using anti-human-Fc or anti-Myc anti-rabbit (Invitrogen) antibodies.
The test was conducted according to test method 4, variant A above, with immobilization of BMP-4 (1 mg/mL). The binding of the fusion proteins was detected using anti-human-antibodies.

[1] = test system: BMP signalling (rhBMP-2-induced luciferase activity); experiment: BRE-Luc assay on BMP signalling in BMP-responsive C3H10-B12 cells; type: cell-based; conditions: combined with rhBMP-2 at 50 ng/ml, 24 h
Procedure: Evaluation of the Agonistic or Antagonistic Effect of h RMG A on BMP Signalling using BRE-Luc Assay
a) Materials: • Three compounds were provided at 200 μg/ml.
fragment #788 (IgK/hRGM A 47-422/Xa cleavage site/Fc) • recombinant h BMP-2 (from CHO cells; #355-BM) and monoclonal anti-human BMP2/4 antibodies (#MAB3552) were obtained from R&D Systems Europe, Lille, France • Bright-Glo Luciferase assay kit were purchased from Promega
All experiments were performed in triplicate, and were repeated at two separate times.

Recombinant human BMP-4 = target: T2, Recombinant human BMP-4 (human, UniProt P12644 293-408); experiment: ELISA, BMP-4 immobilised, fragment titrated, detection with anti-human Fc antibody
T2 construct: Bought protein; also called hBMP-4
T2 sequence (looked up): T1 sequence (P12644 293-408)
Excerpt: The binding of the fusion proteins was detected using anti-human-antibodies.

NTera-2 cells = experiment: Neurite growth test using NTera-2 cells (test method 2); type: cell-based, human; conditions: FIG. 7B
Excerpt: Test Method 2: Illustration of the Effect of RGM Peptides in the Neurite Growth Test, Using NTera-2 Cells
The human pluripotent cancer cell line NTera2 (DSMZ ACC527) is established as a cell culture model. Neurites grow from cell aggregates and form a corona of neurites around the particular aggregate.
NTera-2 cells are human embryonic teratocarcinoma cells. A carcinoma is a cancerous tumor, whereas a teratoma or teratocarcinoma is a mixed tumor of the germ cells composed of various differentiated and undifferentiated tissues, and therefore, the same as for the SH-SY5Y culture, comprises a heterogeneous population. The tumor is usually present in an encapsulated form in the various types, such as hair, skin, teeth, muscle, and nerve tissue. The tumors typically originate in the ovaries, testes, abdominal cavity, or brain. The cell line was cloned from the Tera-2 line, obtained from a metastatic teratocarcinoma in a person.
NTera-2 cells are epithelial, adherently growing cells which form a monolayer. Due to the large number of granular particles which they contain, NTera-2 cells may be easily differentiated from the other cells. The cells were cultivated by 1:5 splitting twice a week. The cells of this mixed culture may be differentiated using retinoic acid in neuronal cells.
Culture Medium Fur Growth […]
In order to differentiate the cells it was necessary to introduce antibiotic into the culture medium of the cell line due to the fact that the cells remained in the same culture flask for three weeks. Previously, the undifferentiated culture had been detrypsinated and the cell count determined using a Neubauer counting chamber. […] 25 μL retinoic acid (10 μM) was readded to the medium under dim light conditions. […]
The culture was stored in an incubator at 37° C. with 5% CO2 gassing, and the medium was changed at the beginning and at the end of the week. […] After three weeks the cells were differentiated and were ready for use in experiments. […]
Different plate formats were used for the tests. For the isolation of protein, 6-well plates were necessary for recovering a sufficient quantity. […]

SH-SY5Y cells = experiment: Neurite growth assay using SH-SY5Y cells (test method 1); type: cell-based, human; conditions: FIG. 7A
Excerpt: Test Method 1: Illustration of the Effect of RGM Peptides in the Neurite Growth Assay, Using SH-SY5Y Cells
SH-SY5Y cells are human neuroblastoma cells. Blastomas are embryonic tumors which originate during tissue and organ formation. The origin of the blastoma cells is frequently unknown, since in early embryonic states the differentiation of many cells is still premature; i.e., the blastoma cells are a heterogeneous cell population. The cells of a neuroblastoma, referred to as neuroblasts, originate from the neural crest (structure of the embryonic state) from the autonomous nerve tissue, and are practically arrested in an immature stage. The cells in the present case originated from a clonal subculture of the neuroepitheliomal cell line SK-N-SH which were isolated in 1970 in a bone marrow biopsy of a child with metastases of the neuroblastomas.
Culture Medium for SH-SY5Y Cells (ECACC No. 94030304)
The medium was sterile-filtered using a Nunc 500-mL filter, and was stored in a refrigerator at 4° C. until used. Before use, the medium was heated to 37° C. in a water bath.
SH-SY5Y cells are epithelial, neuron-like cells which slowly adherently grow in a monolayer and never attain a confluence of 100% (maximum 80%). The cell culture was split 1:3 two times per week. Isolation of the cells requires incubation with trypsin for 1-3 minutes in an incubator.
Since this is a population of still immature precursor cells, it is possible to differentiate the cells using retinoic acid, so that a certain percentage of the cells acquire neurite-like extensions. For this purpose the culture was incubated in the medium with 10 μM retinoic acid directly in the culture dish or flask, depending on the test, for 3 days.
Microtiter plates (96-well) (containing collagen I-coated plates) were additionally coated with the hRGM A fragments. After washing two times with PBS the cells were seeded. […] In the quantitative analysis the SH-SY5Y cells grown on hRGM A fragments were compared to SH-SY5Y grown on collagen I alone. The neurite length of the cells was automatically measured and used for the analysis. […]

Molecule	binding to immobilized BMP-4 (BMP-4)	effect on BMP-2-induced luciferase activity [1]	binding result (Recombinant human BMP-4)	inhibition of neurite growth (NTera-2 cells)	inhibition of neurite growth (SH-SY5Y cells)
fragment #785: Fc fusion protein of human RGM A amino acids 47-90 (PCKILKCNSEFWSATSGSHAPASDDTPEFCAALRSYALCTRRTA; cysteine pairing not given here; also: Fc fusion protein (dimerising Fc))	Significant concentration-dependent binding	did not significantly modify	–	–	–
B1	–	–	binds	–	–
B2	–	–	binds	–	–
B3	Significant concentration-dependent binding	–	–	inhibit the neurite growth	inhibit the neurite growth
